These results are taken from the supplement of paper PMC10126150.

The test system of this series is ATP. Kind of series: switch fluorescence ratio, 500 uM ATP over buffer (Cy3 cluster intensity, sum of 5 cycles each) (fold (ratio)); higher = stronger signal-on switching upon ATP binding; sequences stand for … in TCGTCGGCAGCGTCAGATGTGTATAAGAGACAGTTTTTTTTTTTTTTTTTTTTTTTTT…TC. To be noted: aptamer strand: ATP DNA aptamer (quencher-CACCTGGGGGAGTATTGCGGAGGAAGG + anchor), 100 nM annealed; ATP concentration: 500 uM. Put shortly: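 Cy3-labelled switching-strand clusters on a modified Illumina MiSeq flow-cell were annealed to 100 nM quencher-labelled ATP aptamer, imaged in selection buffer, then imaged after 15 min with 500 uM ATP at 22 °C. Five buffer/ATP cycles ran, with NaOH stripping and re-annealing between them. The fluorescence ratio is summed target-cycle over summed buffer-cycle Cy3 intensity per cluster, averaged per switch-domain sequence. Clusters outside 100-1000 RFU were excluded.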

± gives the standard deviation of the averaged measurements.
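Further: ATP exposure 15 min at 22 °C before imaging.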

As for ATGTGTGTA, the switch fluorescence ratio was 1 ± 0.021.
Consider GTTGTGCATA, for which the switch fluorescence ratio stood at 1.02 ± 0.03.
On to GAGGATCGGG, for which the switch fluorescence ratio was determined as 0.992 ± 0.023.
GGGGCTTAAG: the switch fluorescence ratio was 1.02 ± 0.035.
As to TTTGTATAGT, the switch fluorescence ratio was determined as 1.003 ± 0.0019.
Consider TCCAAGGGGG, for which the switch fluorescence ratio was 1.024 ± 0.0066.
As for GATGGAACTT, the switch fluorescence ratio was determined as 1.02 ± 0.053.
On to GGTGCTTTGG, for which the switch fluorescence ratio came to 0.993 ± 0.046.
Consider ATACGCCGGT, for which the switch fluorescence ratio is 1.013 ± 0.004.
For TTTGCGAGCG, the switch fluorescence ratio was determined as 1.01 ± 0.023.
Consider ATTGTTTCAG, for which the switch fluorescence ratio was 0.976 ± 0.02.
As for TAGAAATGCG, the switch fluorescence ratio worked out at 1.038 ± 0.0038.
Under TATGGAGCCA stands 1.02 ± 0.032.
Turning to TACGGTAGCC, the switch fluorescence ratio worked out at 1.043 ± 0.0061.
Regarding GCTGTAGGAT, the switch fluorescence ratio amounted to 0.984 ± 0.017.
For ACGTACATGT, the switch fluorescence ratio turned out to be 1.44 ± 0.018.
With TATGGAATGG, the switch fluorescence ratio came out at 0.997 ± 0.046.
On to ACTTCTAGGC, for which the switch fluorescence ratio was determined as 1.02 ± 0.058.
For the sequence AGTTAGAGTC, the switch fluorescence ratio amounted to 0.99925 ± 0.00026.
With CCTGTAATTG, the switch fluorescence ratio came out at 1.03 ± 0.031.
For ATGAGTACAG, the switch fluorescence ratio came out at 1.02 ± 0.027.
Regarding CGAGTTGTTT, the switch fluorescence ratio is 1 ± 0.03.
Regarding TGGTGTTGCT, the switch fluorescence ratio turned out to be 0.9797 ± 0.0068.
Regarding TAGACCGGAG, the switch fluorescence ratio turned out to be 1.04 ± 0.014.
Under TTGGGGGTCC stands 1.02 ± 0.038.
As for AGTAGGGGGG, the switch fluorescence ratio was found to be 0.988 ± 0.033.
On to ACAGTAAGTT, for which the switch fluorescence ratio is 1.07 ± 0.016.
With ATCGTTCGGC, the switch fluorescence ratio amounted to 0.976 ± 0.037.
As to TGGAGGGGGC, the switch fluorescence ratio worked out at 1.01 ± 0.046.
Turning to TTGTTAATGT, the switch fluorescence ratio turned out to be 1.06 ± 0.17.
In the case of GTGTTTTTGA, the switch fluorescence ratio worked out at 1.01 ± 0.034.
Take TTAGTTTGTT: the switch fluorescence ratio was 0.981 ± 0.014.
Turning to CGGCGTAGTC, the switch fluorescence ratio came out at 1.02 ± 0.035.
Regarding TTTGTAAGTA, the switch fluorescence ratio worked out at 1 ± 0.013.
Take GGGGGGATTG: the switch fluorescence ratio was found to be 0.99 ± 0.025.
Under ATAAGACCGT stands 1.015 ± 0.0046.
The result for AACCTCATGC reads 1.17 ± 0.086.
On to TATAGGAAAA, for which the switch fluorescence ratio was found to be 1.35 ± 0.61.
For GGTGCTAAGG, the switch fluorescence ratio came to 1.02 ± 0.021.
As to ACTGGCAGTT, the switch fluorescence ratio stood at 1.01 ± 0.037.
For the sequence GGGGGACTTG, the switch fluorescence ratio came to 0.997 ± 0.021.
Turning to ATAGGCGGGA, the switch fluorescence ratio was 0.9932 ± 0.00079.
On to GGAGTTTGGT, for which the switch fluorescence ratio worked out at 1.01 ± 0.056.
Turning to TAAGGAGTTC, the switch fluorescence ratio was 0.965 ± 0.021.
Consider ATGGAAGAGG, for which the switch fluorescence ratio is 0.982 ± 0.018.
On to AACCAGCACC, for which the switch fluorescence ratio was found to be 1.0991 ± 0.00048.
Take GAGCTTTCCG: the switch fluorescence ratio came out at 1.19 ± 0.26.
In the case of ATCTTAAGTA, the switch fluorescence ratio turned out to be 0.9977 ± 0.0091.
Turning to AAGGGTATTT, the switch fluorescence ratio was 1.01 ± 0.028.
For TTGGGTCAAC, the switch fluorescence ratio is 1.05 ± 0.014.
Turning to CGGGGGTGTC, the switch fluorescence ratio is 0.998 ± 0.026.
Regarding GTGTGAACGG, the switch fluorescence ratio stood at 0.958 ± 0.018.
With ATGCTATACT, the switch fluorescence ratio came to 1.6 ± 0.022.
For the sequence TAGAAAAAGA, the switch fluorescence ratio is 0.988 ± 0.016.
Take TGCATAAGAA: the switch fluorescence ratio amounted to 0.955 ± 0.03.
The result for TAATTTTGCG reads 1 ± 0.015.
Under TTACATATGG stands 1.024 ± 0.0032; under TACATTTAGG, 0.9964 ± 0.0092.
Consider GGGGCATGGG, for which the switch fluorescence ratio amounted to 0.995 ± 0.033.
Turning to CGTTCGGGTT, the switch fluorescence ratio came out at 0.989 ± 0.044.
Under CTGCAGTTGA stands 1.04 ± 0.024.
As to TTTTGTTGGC, the switch fluorescence ratio stood at 1.04 ± 0.035.
For TATTACTCGT, the switch fluorescence ratio stood at 1.01 ± 0.07.
Under CGTAATTGCC stands 1.002 ± 0.008; under CGCGGGGTGT, 1.05 ± 0.03; under AGCGGCCTGG, 0.992 ± 0.014.
On to TGCGATTCG, for which the switch fluorescence ratio was 0.9931 ± 0.0076.
As to GGTAACTTTG, the switch fluorescence ratio came to 0.989 ± 0.031.
Turning to CATTAGAGGG, the switch fluorescence ratio is 0.988 ± 0.031.
With ATTGTTATCT, the switch fluorescence ratio came to 1 ± 0.013.
For GGAGTTGGG, the switch fluorescence ratio was 0.968 ± 0.012.
In the case of CCGAATTGTA, the switch fluorescence ratio was found to be 1.03 ± 0.016.
Turning to AATTTGGCTG, the switch fluorescence ratio is 1.22 ± 0.29.
For GCATTTGGCC, the switch fluorescence ratio came to 0.999 ± 0.012.
Turning to TGTTTCGACG, the switch fluorescence ratio was determined as 0.986 ± 0.038.
On to ACTGGGATGG, for which the switch fluorescence ratio was 1.031 ± 0.0089.
Consider AGACGGTATG, for which the switch fluorescence ratio stood at 1.02 ± 0.0061.
Take TTGGGTAGTG: the switch fluorescence ratio is 0.993 ± 0.031.
With GCCTACAGGT, the switch fluorescence ratio worked out at 1.03 ± 0.019.
Under AGGTGTGTTG stands 0.984 ± 0.034.
As to ATTTGTGTGT, the switch fluorescence ratio is 0.967 ± 0.036.
As to GCTAGAAGGT, the switch fluorescence ratio was determined as 1.01 ± 0.03.
GAATCCGTAG: the switch fluorescence ratio worked out at 1.16 ± 0.03.
In the case of GGTTTCGACG, the switch fluorescence ratio was 1.01 ± 0.011.
The result for ACATTACACA reads 1.4 ± 0.25.
Consider GTCGCGTAGG, for which the switch fluorescence ratio was 1.03 ± 0.024.
Turning to GCATTGGCGG, the switch fluorescence ratio came out at 0.993 ± 0.044.
For TTGAGATCGG, the switch fluorescence ratio was 1.01 ± 0.05.
As to AGTGAGCTAT, the switch fluorescence ratio was 1.01 ± 0.018.
In the case of TGGGATGGGG, the switch fluorescence ratio is 1.01 ± 0.037.
In the case of TTCAGGAGAC, the switch fluorescence ratio amounted to 1.01 ± 0.041.
For GCATCAATGG, the switch fluorescence ratio is 1.06 ± 0.014.
With GACGGGATTT, the switch fluorescence ratio came to 1.03 ± 0.03.
As for AGGGGGTTGT, the switch fluorescence ratio amounted to 0.995 ± 0.026.
Under ATATTTCCTA stands 0.989 ± 0.033; under AGGGTCTGTA, 0.939 ± 0.015; under GTTTATTCGC, 0.998 ± 0.043.
On to GCTTCAGGTC, for which the switch fluorescence ratio is 1.05 ± 0.074.
Consider TGAATTTCGA, for which the switch fluorescence ratio worked out at 0.953 ± 0.025.
Take GACTGCGGGG: the switch fluorescence ratio worked out at 0.987 ± 0.038.
Under AGGCAGACTT stands 1.004 ± 0.0089.
Take AGCGGGGCTG: the switch fluorescence ratio came out at 1.01 ± 0.029.
Consider CATTATTTTT, for which the switch fluorescence ratio amounted to 1.01 ± 0.024.
Consider TTTAGGTAAT, for which the switch fluorescence ratio came out at 1.016 ± 0.0074.
In the case of GGGAGAATAG, the switch fluorescence ratio amounted to 0.985 ± 0.036.
For the sequence TACAGTGAGC, the switch fluorescence ratio was determined as 1.026 ± 0.0019.
For the sequence CAGGGACGTT, the switch fluorescence ratio worked out at 0.987 ± 0.02.
With AGGGGACTAT, the switch fluorescence ratio came to 1 ± 0.013.
The result for CGATTTTGGT reads 0.9633 ± 0.0038; that for TGTGTGTGTT, 1.02 ± 0.03.
Under GCGAGAAGAG stands 1.003 ± 0.0092; under TTATTAGGCA, 1.01 ± 0.023.
For AATTTTTTTC, the switch fluorescence ratio is 0.989 ± 0.015.
The result for TTATTGCGCT reads 0.994 ± 0.013; that for GAGTAGCGGT, 1.01 ± 0.026.
As to TGGAGTACGG, the switch fluorescence ratio stood at 1.008 ± 0.0036.
For CCACGCCAGG, the switch fluorescence ratio was determined as 2.79 ± 0.084.
CGAATCAAAC: the switch fluorescence ratio is 1.52 ± 0.032.
For the sequence TTAACATATA, the switch fluorescence ratio stood at 1.017 ± 0.0088.
On to AGGATTTCGT, for which the switch fluorescence ratio worked out at 1.008 ± 0.0068.
